In paper PMC7364221 one finds binding data, which are given here for 5 sequences.

This series has as its target T1, ClbR (Escherichia coli Nissle 1917) (UniProt Q0P7J1).
T1 sequence: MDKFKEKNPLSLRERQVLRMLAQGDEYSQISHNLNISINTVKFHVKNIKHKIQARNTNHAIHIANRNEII
Nature of the series: EMSA. The following applies: pH and temperature not stated. (In EMSA bound probe runs differently from free probe, usually more slowly.)

As to “CCAGTCACGACGTTGTAATACGACGGCCAGAGAATCCGTAATCATAGTCATAGCTGTATCCTGTGTGAAATTGTTATCCGCTCATAATTTCACACAACATACGAGCCGGACACATAGAGTGTAAAGACTGGGGTGCCTAATGAGTGAGCTGACTCACATTAATTGTGTTGCGCTCACTGCCCGCTTTCCAGTCGGGAAACTTGTCGTGCCAGCTGCATTAATGAATCGG (double strand) [lacZ promoter probe (229 bp)]”, the binding entry is on record as “no binding”.

Regarding “GAGATTTTCCATGTAATAAGATGGACACGCGTAAGCAGTTACCGCTAACACCAAGTCAACAGGGGTTTTTATTCCATTCCTTAAAGGATAAGAAAAGGAGTAACTACCATGAGCA (double strand) [probe 8 (clbB upstream, 115 bp)]”, the binding entry is listed as “no binding”.

For “TGCGGATAGGTGTGCCATTTAGAATAATCATGTTAAATAATCTATAAATCCGATAATAAGGTGATGGTTATGGATAATACCTCTGGAGATTTTCCATGTAATAAGATGGACACGCGTAAGCAGTTACCGCTAACACCAAGTCAACAGGGGTTTTTATTCCATTCCTTAAAGGATAAGAAAAGGAGTAACTACCATGAGCA (double strand) [probe 11 (clbB upstream, 200 bp)]”, the binding entry is reported as “no binding”.

Regarding “TGCTCATGGTAGTTACTCCTTTTCTTATCCTTTAAGGAATGGAATAAAAACCCCTGTTGACTTGGTGTTAGCGGTAACTGCTTACGCGTGTCCATCTTATTACATGGAAAATCTCCAGAGGTATTATCCATAACCATCACCTTATTATCGGATTTATAGATTATTTAACAT (double strand) [probe 7 (clbB upstream, 171 bp)]”, the binding entry is “no binding”.

Regarding “TGCTCATGGTAGTTACTCCTTTTCTTATCCTTTAAGGAATGGAATAAAAACCCCTGTTGACTTGGTGTTAGCGGTAACTGCTTACGCGTGTCCATCTTATTACATGGAAAATCTCCAGAGGTATTATCCATAACCATCACCTTATTATCGGATTTATAGATTATTTAACATGATTATTCTAAATGG (double strand) [probe 12 (clbB upstream, 186 bp)]”, the binding entry is given as “no binding”.
